# Reference: patent publication US20200222444
# Target: Flag-Mettl8 (Flag-tagged human Mettl8, wild type) (UniProt Q9H825)
# Sequence (Q9H825 other isoform, or with tags, fused parts or gaps): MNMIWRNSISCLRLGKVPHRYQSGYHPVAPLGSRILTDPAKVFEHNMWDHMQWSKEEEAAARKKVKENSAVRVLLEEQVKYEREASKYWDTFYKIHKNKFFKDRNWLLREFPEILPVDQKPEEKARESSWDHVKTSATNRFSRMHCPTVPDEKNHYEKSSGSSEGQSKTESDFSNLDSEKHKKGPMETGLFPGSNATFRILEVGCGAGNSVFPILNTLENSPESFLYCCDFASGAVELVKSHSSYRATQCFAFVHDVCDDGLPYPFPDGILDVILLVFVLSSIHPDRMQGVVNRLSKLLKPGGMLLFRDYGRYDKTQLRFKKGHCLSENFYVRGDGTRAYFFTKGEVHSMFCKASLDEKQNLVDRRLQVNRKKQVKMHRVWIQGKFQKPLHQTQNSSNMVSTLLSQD
substance,measurement,value
Endogenous ATM,"pS/TQ phosphorylation after 10 Gy irradiation (Flag IP, immunoblot)",pS/TQ phosphorylation was detected on wild type Mettl8 upon irradiation
